Laboratory results as given in the supplement of paper PMC12042874.
± gives the uncertainty stated by the source.

Test: amyloid nucleation score (Sup35N fusion, yeast selection) (log enrichment); library NNK1; higher = more nucleation; inactive = no reads after selection
In short: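 Sup35N was fused to peptides of 20 random codons and expressed in psi-negative yeast, which were induced with 100 μM copper sulfate for 24 hours and then grown on medium lacking adenine and uracil for 7 days at 30°C. Plasmid inserts from input and output were sequenced on Illumina. The nucleation score is the DiMSum log enrichment of output over input reads, centred on the mode score of non-aggregating sequences. Sequences with under 100 input reads were left out, and random libraries had three technical output replicates.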

Going from PGFFWHICFG to FGMNLILHCTPTQRTYISPV, the amyloid nucleation score falls from 4.55 ± 0.082 to 2.83 ± 0.092.

First: MWAAGDNHYSNKVLSLAMVV
Second: HLGSNFKISAGAINVRLSHR
The amyloid nucleation score of the first is lower: 0.501 ± 1 for the first, 4.76 ± 0.1 for the second.

Going from GLKRWSIGFRDGERQSCRVR to GGGQAELEGR, the amyloid nucleation score rises from -0.523 ± 0.35 to 0.365 ± 0.45.

HTRRTEFHAGYYRINTAYAV and CISIACSAD are within error of each other in amyloid nucleation score: 0.268 ± 0.7 for the first, 0.342 ± 0.73 for the second.

Compared with IIREFSEGWVISKLDQD, DFNHYDRSSW is higher in amyloid nucleation score: -0.446 ± 0.3 for the first, 2.45 ± 0.18 for the second.

Going from TVMVGLKVCAHQLDSM to CRCYNWFRWSLMS, the amyloid nucleation score falls from 1.28 ± 0.4 to -0.07 ± 0.26.

SPRYQSVWEFVSFQDCTSRW and SHMMHSMAEVSFARYWDKQS are within error of each other in amyloid nucleation score: 0.118 ± 1.2 for the first, -2.46 ± 1.9 for the second.

First: NKMGFFNTISGKRS
Second: EFSLGSPIKWTNHGLVIKGM
The amyloid nucleation score of the first is lower: -0.556 ± 0.59 for the first, 2.71 ± 0.13 for the second.

WTAGWL and FHSSGFVVYMLIVRGSPSMR are within error of each other in amyloid nucleation score: -0.065 ± 0.44 for the first, 0.218 ± 0.27 for the second.

LLFLYSLNLSRHLY and TCTFPKVIQSYAGRLAMPGY are within error of each other in amyloid nucleation score: 0.71 ± 1.1 for the first, -0.135 ± 0.58 for the second.

MISLHVL and MTYTSWMMNRFNITNSYNLV are within error of each other in amyloid nucleation score: -0.109 ± 1.3 for the first, 0.755 ± 0.97 for the second.

First: MDCCYYFFLIF
Second: FSSLWDGLLY
The amyloid nucleation score of the first is higher: 4.15 ± 0.052 for the first, 1.16 ± 0.69 for the second.

Going from SKKIVGIFYKVCSRRLFMVC to YGNYGCLGRWNSLHTCSQIC, the amyloid nucleation score falls from 0.456 ± 0.6 to -0.913 ± 0.67.

First: NYLTHG
Second: VLDMKFKYNVPSLK
The amyloid nucleation score of the first is lower: 0.311 ± 0.37 for the first, 5.41 ± 0.06 for the second.

FLYVLDSVSCQ and NKQARVRETRVGLTCVGMLG are within error of each other in amyloid nucleation score: 0.648 ± 0.69 for the first, -0.321 ± 1.2 for the second.

PIKAPLGASCGFAVRVTRTM and GKEDRIG are within error of each other in amyloid nucleation score: 0.391 ± 0.46 for the first, -0.093 ± 0.81 for the second.

Going from KFNPLLITKFSAWECGLVVG to WFWLIRMYMSFYVVAFVGSG, the amyloid nucleation score rises from -1.55 ± 1.9 to 1.31 ± 0.74.

IEQSNMVTARRLELLRSAVS and PTWSWWGSWHLGSMPGDNRR are within error of each other in amyloid nucleation score: 0.339 ± 0.54 for the first, 0.237 ± 0.78 for the second.

VLIWPGRRNSARSYWSSSGL and TFTPWKVDVLSRYRMQGCAQ are within error of each other in amyloid nucleation score: 1.21 ± 0.66 for the first, 0.556 ± 0.47 for the second.

EHSSVCLESSQYVRMVVIKQ and DLRSSGFDTELILQVSVQLL are within error of each other in amyloid nucleation score: 0.531 ± 0.66 for the first, -0.264 ± 0.59 for the second.

MGRQEASMKRCTSGDVGGWL and HMWYFRYGHEWSRTYNKCIK are within error of each other in amyloid nucleation score: 0.523 ± 0.78 for the first, -0.02 ± 0.72 for the second.

Going from KSVVLHWYAYSMLYPLWNLV to AYKDGVTTLDLGCTGCFCYA, the amyloid nucleation score rises from 0.511 ± 0.53 to 4.7 ± 0.072.

Going from IHVAFHSLSQCGRCVYCSVL to NWVLHIRDCRAKALPLITDW, the amyloid nucleation score falls from 3.25 ± 0.16 to -0.034 ± 0.45.

Going from YTNGNIASTVLYLRPGYHLA to WLKVRNTR, the amyloid nucleation score falls from 1.06 ± 0.49 to -0.178 ± 0.49.

HNKCSFLYMSQYARHRMYSS and LDEFSTSISITEWSSKL are within error of each other in amyloid nucleation score: 0.218 ± 0.5 for the first, -0.261 ± 0.3 for the second.

Going from CDYVKRLDNLLGYPLWWGRW to TWNRRVRVYTGYCPNVGMSL, the amyloid nucleation score rises from 0.22 ± 0.34 to 4.94 ± 0.059.

YRWSLTLNLL and GYSYTCPLS are within error of each other in amyloid nucleation score: -0.651 ± 0.47 for the first, -0.217 ± 0.36 for the second.

Going from NVLTVCCVGLIKSSVSLIEN to GLSQWGTVRCHTAASIYLAT, the amyloid nucleation score falls from 8.418 ± 0.065 to 0.316 ± 0.58.

Compared with RDSITITVNCT, MIIRLVLVGSSYKNVPSAEG is lower in amyloid nucleation score: 2.44 ± 0.078 for the first, 0.137 ± 0.49 for the second.

PAGNNYDNNVSNNGTCKEFW and SRSGSLKCRGAQGFTCY are within error of each other in amyloid nucleation score: 0.294 ± 0.28 for the first, 0.564 ± 0.52 for the second.

CSVKCKTRCVYRFMESKWF and LSFEIFMNVTRPSICHKVSL are within error of each other in amyloid nucleation score: -0.021 ± 0.32 for the first, -2.04 ± 2.4 for the second.

DLIGFSWGTIEWLRA and GMWSTNANTPILVILRGVVM are within error of each other in amyloid nucleation score: -0.931 ± 0.64 for the first, 0.71 ± 1.1 for the second.

First: GTWNF
Second: MSIVCFCW
The amyloid nucleation score of the first is lower: -0.023 ± 0.55 for the first, 8.155 ± 0.047 for the second.

SYGGGYTTSQGYGLGELTKY and MSVEIVTIGGGF are within error of each other in amyloid nucleation score: 0.543 ± 1.1 for the first, -0.481 ± 1.4 for the second.

Going from FMGFISACQRMIIIMYVFRT to LLLFFNYNLSVIWWVYGRKS, the amyloid nucleation score rises from -0.126 ± 0.28 to 1.23 ± 0.47.

EECGLGCAVKA and GLDKALTFKALCDLLRNSLC are within error of each other in amyloid nucleation score: 0.188 ± 0.19 for the first, 0.598 ± 1.2 for the second.

First: FIQCVFHVCLRV
Second: LWSYRDFRQVSTELN
The amyloid nucleation score of the first is higher: 4.68 ± 0.073 for the first, -1.15 ± 2.7 for the second.

Compared with VVCFMPVLMAVQMGCSHWNY, AQLWRARREFSFMTPMPSVS is lower in amyloid nucleation score: 3.55 ± 0.063 for the first, -0.624 ± 1.5 for the second.

PMSLPTYLRIPRFVLLAWAE and EGYAWGPYLKLTRSKLRMSF are within error of each other in amyloid nucleation score: -0.034 ± 0.39 for the first, -0.374 ± 0.81 for the second.

ARGCD and LGLYSVCC are within error of each other in amyloid nucleation score: -0.247 ± 1.1 for the first, -0.219 ± 0.3 for the second.

MRCISYIYEHAL and WIAFERPAYVDSWHLTRNRP are within error of each other in amyloid nucleation score: 0.567 ± 0.66 for the first, 0.109 ± 0.24 for the second.

TETQECVSRYVILGGGAGVS and LRSEEVFTHMRAGVAKSFWD are within error of each other in amyloid nucleation score: 0.271 ± 0.71 for the first, 0.461 ± 0.72 for the second.

With WHSSSLMWHNKLS the amyloid nucleation score was “inactive”.
For KAIRMLFSVMIVKR, the amyloid nucleation score was “inactive”.
In the case of LFRFNWLDSNPV, the amyloid nucleation score is reported as “inactive”.
